From article doi:10.1101/2020.03.23.004119 (bioRxiv, 2020)

Target: the molecule itself
Experiment: two-hybrid

B1: hPFKFB4 mammalian two-hybrid fusion (pBind-PFKFB4 and pAct-PFKFB4) (enzyme, human, UniProt Q16877 1-469, looked up)
chain: MASPRELTQNPLKKIWMPYSNGRPALHACQRGVCMTNCPTLIVMVGLPARGKTYISKKLTRYLNWIGVPTREFNVGQYRRDVVKTYKSFEFFLPDNEEGLKIRKQCALAALRDVRRFLSEEGGHVAVFDATNTTRERRATIFNFGEQNGYKTFFVESICVDPEVIAANIVQVKLGSPDYVNRDSDEATEDFMRRIECYENSYESLDEDLDRDLSYIKIMDVGQSYVVNRVADHIQSRIVYYLMNIHVTPRSIYLCRHGESELNLKGRIGGDPGLSPRGREFAKSLAQFISDQNIKDLKVWTSQMKRTIQTAEALGVPYEQWKVLNEIDAGVCEEMTYEEIQDNYPLEFALRDQDKYRYRYPKGESYEDLVQRLEPVIMELERQENVLVICHQAVMRCLLAYFLDKAAEQLPYLKCPLHTVLKLTPVAYGCKVESIFLNVAAVNTHRDRPQNVDISRPPEEALVTVPAHQ
  fold luciferase expression over the negative controls: 6 fold
